Reference: US20110230374A1 (UNIVERSITY OF MARYLAND BALTIMORE, published 2011)

B1: VLRB.HEL.2D (other)
chain: ACPSQCSCSGTTVDCSGKSLASVPTGIPTTTQVLYLYDNQITKLEPGVFDRLTQLTRLDLDNNQLTVLPAGVFDKLTQLTQLSLNDNQLKSIPRGAFDNLKSLTHIWLLNNPWDCACSDILYLSRWISQHPGLVFGYLNLDPDSARCSGTNTPVRAVTEASTSPSKCP
notes: also called VLRB.2D; wild-type VLRB.2D
B2: VLRB.2DMut.12 (other)
chain: ACPSQCSCSGTTVDCSGKSLASVPTGIPTTTQVLYLYDNQITKLEPGVFDRLTQLTRLDLDNNQLTVLPAGVFDKLTQLTQLSLNDNQLKSIPRGAFDNLKSLTHIWLLNNPWDCACSDILYLSRWISQHPWLVFGYLNLDHDSARCSGTNTPVRAVTEASTSPSKCP
B3: VLRB.2DMut.15 (other)
chain: ACPSQCSCSGTTVDCSGKSLASVPTGIPITTQVLYLYDNQITKLEPGVFDRLTQLTRLDLDNNQLTVLPAGVFDKLTQLTQLSLNVNQLKSIPRGAFDNLKSLTHIWLLNNPWDCACSDILYLSRWISQHPGLVFGYLNLYPDSARCSGTNTPVRAVTEASTSPSKCP
B4: VLRB.2DMut.13 (other)
chain: ACPSQCSCSGTTVDCSGKSLASVPTGIPTTTQVLYLYDNRITKLEPGVFDRLTQLTRLDLDNNQLTVLPAGVFDKLTQLTQLSLNDNQLKSIPRGAFDNLRSLTHIWLLNNPWDCACSDILYLSRWISQHPWLVFGYLNLDHDSARCSGTNTPVRAVTKASTSPSKCP
B5: VLRB.CTMut.5 (other)
chain: ACPSQCSCDQTTVYCHNRRLTSVPTGIPTTTQVLYLYDNQITKLEPGVFDRLTKLTHLSLGYNQLKSVPRGAFDNLKSLTHIWLLNNPWDCQCTDILYLKNWIVQHASIVNPHTHGGVDNVKCSGTNTPVRAVTEASTSPSKC

Experiments:
hen egg lysozyme [1] = biological target: T1, hen egg lysozyme (hen, UniProt P00698 19-147); experiment: YSD antigen titration, flow cytometry, biotin-HEL and SAPE
T1 construct: Soluble monovalent antigen; Biotinylated for YSD titration; unlabelled analyte in SPR and titrant in ITC; also called HEL

hen egg lysozyme [2] = biological target: T1, hen egg lysozyme; experiment: ITC at 25 C, VLR refolded from E. coli inclusion bodies, HEL injected
hen egg lysozyme [3] = biological target: T1, hen egg lysozyme; experiment: SPR (BIAcore T100), biotinylated yeast-secreted VLR on NeutrAvidin, antigen as analyte
hen egg lysozyme [4] = biological target: T1, hen egg lysozyme; experiment: SPR, steady-state analysis, VLRB.2D (117.0-10.9 µM) over immobilized HEL (FIG. 3A); SPR of FIG. 3A; clone found by phage display
hen egg lysozyme [5] = biological target: T1, hen egg lysozyme; experiment: SPR, Table 1
hen egg lysozyme [6] = biological target: T1, hen egg lysozyme; experiment: SPR, VLR over immobilized HEL
hen egg lysozyme [7] = biological target: T1, hen egg lysozyme; experiment: SPR, steady-state analysis, 2DMut.12 (30.8-1.0 µM) over immobilized HEL (FIG. 3B)
hen egg lysozyme [8] = biological target: T1, hen egg lysozyme; experiment: SPR (BIAcore T100), biotinylated yeast-secreted VLR on NeutrAvidin, HEL as analyte (7.66-0.00299 nM)

T1 sequence (P00698 19-147): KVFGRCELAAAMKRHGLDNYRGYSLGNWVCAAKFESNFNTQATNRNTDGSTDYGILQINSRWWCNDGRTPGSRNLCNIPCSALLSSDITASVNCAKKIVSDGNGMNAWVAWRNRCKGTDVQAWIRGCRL

| Binder | Kd (hen egg lysozyme [1]) | Kd (hen egg lysozyme [2]) | Kd (hen egg lysozyme [3]) | Kd (hen egg lysozyme [4]) | fold improvement of affinity over wild-type VLRB.HEL.2D (hen egg lysozyme [5]) | fold improvement of affinity over wild-type VLRB.2D (hen egg lysozyme [6]) | Kd (hen egg lysozyme [7]) | fold improvement of affinity over VLRB.HEL.1 (hen egg lysozyme [5]) | Kd (hen egg lysozyme [8]) |
| --- | --- | --- | --- | --- | --- | --- | --- | --- | --- |
| B1 | 659 nM | 427 nM | 455 nM | 20000 nM |  |  |  |  |  |
| B2 | 6.9 nM | 28 nM | 4.3 nM |  | 100 fold | 13 fold | 1500 nM |  |  |
| B3 |  | 8 nM | 20.2 nM |  |  |  |  |  |  |
| B4 |  | 34 nM | 55.1 nM |  |  |  |  |  |  |
| B5 |  |  |  |  |  |  |  | 1300 fold | 0.119 nM |
